From patent US20210063414A1, “METHODS FOR PREVENTING AND/OR TREATING BONE LOSS CONDITIONS BY MODULATING IRISIN” (Dana-Farber Cancer Institute, Inc., priority 2018, published 2021)

Target: T1, MLO-Y4 cell surface proteins (Mus musculus, UniProt Q8JZN5)
T1 construct: endogenous in cells; host or cells: MLO-Y4
T1 sequence (Q8JZN5 42-625): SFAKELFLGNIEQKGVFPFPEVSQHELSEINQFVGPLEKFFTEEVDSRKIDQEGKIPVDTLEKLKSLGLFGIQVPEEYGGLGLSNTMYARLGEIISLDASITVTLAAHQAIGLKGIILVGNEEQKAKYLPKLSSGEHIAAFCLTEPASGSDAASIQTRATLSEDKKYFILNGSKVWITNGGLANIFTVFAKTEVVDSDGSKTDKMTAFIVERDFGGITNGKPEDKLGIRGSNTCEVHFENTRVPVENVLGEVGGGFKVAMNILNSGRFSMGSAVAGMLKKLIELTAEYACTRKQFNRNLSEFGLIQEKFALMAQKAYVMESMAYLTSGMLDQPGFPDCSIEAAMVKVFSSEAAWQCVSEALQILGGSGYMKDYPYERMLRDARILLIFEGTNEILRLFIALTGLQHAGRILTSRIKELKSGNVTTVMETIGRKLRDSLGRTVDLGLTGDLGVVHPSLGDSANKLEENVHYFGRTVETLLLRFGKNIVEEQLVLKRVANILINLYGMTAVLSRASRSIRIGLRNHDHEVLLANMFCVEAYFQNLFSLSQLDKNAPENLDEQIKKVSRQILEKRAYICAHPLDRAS
Assay: Crosslinking/co-immunoprecipitation/mass spectrometry (TMT quantitative proteomics) to identify irisin receptors
Type: binding
Details: co-precipitated protein Acad9 (ACAD9_MOUSE)
Outline: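 Relative protein abundance came from 6-plex TMT MS3 quantitation on an Orbitrap Fusion Lumos, after in-gel trypsin digestion of Coomassie-stained SDS-PAGE lanes. Input was a Ni-NTA pulldown (250 mM imidazole elution) of lysates from murine MLO-Y4 cells. These cells were treated on ice with His-tagged irisin or adipsin (10 nM, 20 min) in serum-free medium, then crosslinked with 1.5 mM DTSSP for 30 min.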

B1: irisin: secreted cleaved form of FNDC5; recombinant human/mouse irisin with C-terminal his tag produced in HEK293 cells (protein)
chain: DSPSAPVNVTVRHLKANSAVVSWDVLEDEVVIGFAISQQKKDVRMLRFIQEVNTTTRSCALWDLEEDTEYIVHVQAISIQGQSPASEPVLFKTPREAEKMASKNKDEVTMKE
modifications: left off: small tags and cut ends
notes: secreted cleaved form of FNDC5; recombinant human/mouse irisin with C-terminal his tag produced in HEK293 cells
  TMT signal-to-noise ratio: 61.8219
  irisin/adipsin TMT signal-to-noise ratio: 0.486
